Among the data in paper PMC3206016, “Putting into Practice Domain-Linear Motif Interaction Predictions for Exploration of Protein Networks” (PLoS ONE, 2011) are Kd values, retold here.

Several values for one entry are separate records, joined by “and”; a condition that tells them apart may be missing. Equal entries are not always repeated. Ends that are not written are not given here. * marks the point of attachment. Biotin = O=C1N[C@H]2[C@H](CS[C@H]2CCCCC(=O)*)N1

B1: SCRIB-3/4 (MBP fusion of the third of the four PDZ domains of SCRIB) (domain or fragment)
chain: EGPYPVEEIRLPRAGGPLGLSIVGGSDHSSHPFGVQEPGVFISKVLPRGLAARSGLRVGDRILAVNGQDVRDATHQEAVSALLRPCLELSLLVRRDP
notes: also called MBP-PDZ analyte SCRIB-3/4; source: E. coli BL21 DE3, purified (amylose column, Superdex 75 gel filtration)

Common to all, as to test: SPR
Conditions in all cases: both partners purified

The target of test [1] is T1, 16E6_05 (short peptide of HPV16 early protein E6: GSGAG and the last five residues) (human papilloma virus 16, biotin at N-terminus).
T1 construct: also called 16E6 short; source: synthetic peptide (JPT Peptide Technologies)

The target of test [2] is T2, TAX1_05 (short peptide of the Trans-activating transcriptional regulatory protein of HTLV-1: GSGAG a (HTLV-1A, biotin at N-terminus)).
T2 construct: source: synthetic peptide (JPT Peptide Technologies)

The target of test [3] is T3, MAGI1-3/6 (MBP fusion of the third of the six PDZ domains of MAGI1) (mouse, UniProt Q6RHR9-1 613-752).
T3 construct: source: E. coli BL21 DE3, purified (amylose column, Superdex 75 gel filtration)

Test [4] has as its target B1.
The target of test [5] is T4, SCRIB-34/4 (MBP fusion of the tandem of the third and fourth PDZ domains of SCRIB) (human, UniProt Q14160-1 997-1193).
T4 construct: also called MBP-PDZ analyte SCRIB-34/4; tandem PDZ construct; source: E. coli BL21 DE3, purified (amylose column, Superdex 75 gel filtration)
T4 sequence (looked up): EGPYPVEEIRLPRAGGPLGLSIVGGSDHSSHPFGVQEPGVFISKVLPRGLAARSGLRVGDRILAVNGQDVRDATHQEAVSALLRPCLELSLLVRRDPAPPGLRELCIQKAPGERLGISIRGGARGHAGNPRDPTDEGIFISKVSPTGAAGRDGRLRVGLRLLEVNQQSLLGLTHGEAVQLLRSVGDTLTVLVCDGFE

For test [6], the target named is T5, MAGI1-2/6 (MBP fusion of the second of the six PDZ domains of MAGI1) (mouse, UniProt Q6RHR9-1 448-572).
T5 construct: source: E. coli BL21 DE3, purified (amylose column, Superdex 75 gel filtration)

Test [7] has as its target B1. The source holds these as a separate data set.
For test [8], the target named is T4, SCRIB-34/4 (MBP fusion of the tandem of …). This is another data set of the same source.
Test [9] addresses B1. The source holds these as a separate data set.
The target of test [10] is T4, SCRIB-34/4 (MBP fusion of the tandem of …). The source holds these as a separate data set.
For test [11], the target named is T5, MAGI1-2/6 (MBP fusion of the second of …). This is another data set of the same source.
Test [12] has as its target T3, MAGI1-3/6 (MBP fusion of the third of …). The source holds these as a separate data set.
The target in test [13] is B1. The source holds these as a separate data set.
The target of test [14] is T4, SCRIB-34/4 (MBP fusion of the tandem of …). The source holds these as a separate data set.
Test [15] concerns the target T3, MAGI1-3/6 (MBP fusion of the third of …). This is another data set of the same source.
Test [16] has as its target T6, SCRIB-4/4 (MBP fusion of the fourth of the four PDZ domains of SCRIB) (human, UniProt Q14160-1 1097-1193).
T6 construct: also called MBP-PDZ analyte SCRIB-4/4; source: E. coli BL21 DE3, purified (amylose column, Superdex 75 gel filtration)
T6 sequence (looked up): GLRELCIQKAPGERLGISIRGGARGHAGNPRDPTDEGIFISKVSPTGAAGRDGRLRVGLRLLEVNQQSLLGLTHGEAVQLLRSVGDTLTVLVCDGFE

T3 sequence (Q6RHR9 613-752): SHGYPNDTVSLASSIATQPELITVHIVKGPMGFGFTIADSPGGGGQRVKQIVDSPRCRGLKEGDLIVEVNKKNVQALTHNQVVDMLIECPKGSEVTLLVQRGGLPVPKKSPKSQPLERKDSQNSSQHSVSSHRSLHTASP
T5 sequence (Q6RHR9 448-572): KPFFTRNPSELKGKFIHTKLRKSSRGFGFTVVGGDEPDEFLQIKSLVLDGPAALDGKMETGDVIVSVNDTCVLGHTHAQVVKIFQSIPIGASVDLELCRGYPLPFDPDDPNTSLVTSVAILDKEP

For B1, the equilibrium dissociation constant (Kd) in [1] stood at 12 µM; in test [2], 96 µM.

B2: TTC24_10 (long peptide of Tetratricopeptide repeat protein 24: the last ten residues) (peptide)
peptide: Biotin-PMESGICTIV
notes: also called TTC24 long; source: synthetic peptide (JPT Peptide Technologies)
With B2, the dissociation constant (Kd) in [3] was 37 µM; in [4], 117 µM; in test [5] it was 49 µM.

B3: 16E6 (long peptide of HPV16 early protein E6: the last ten residues) (peptide)
peptide: Biotin-SSRTRRETQL
notes: source: synthetic peptide (JPT Peptide Technologies)
Consider B3, for which the equilibrium dissociation constant (Kd) in test [6] is 3 µM and 9 µM; in [7], 18 µM; in test [8] it was 3 µM; in test [9], 15 µM; in test [10], 3 µM.

B4: CYSLTR2_05 (short peptide of Cysteinyl leukotriene receptor 2: GSGAG and the last five residues) (peptide)
peptide: Biotin-GSGAGKETRV
notes: also called CYSLTR2 short; source: synthetic peptide (JPT Peptide Technologies)
Turning to B4, the Kd in test [11] was 30 µM; in [12], 21 µM; in test [13], 103 µM; in test [14], 10 µM.

B5: MAS_10 (long peptide of Proto-oncogene Mas: the last ten residues) (peptide)
peptide: Biotin-CNTVTVETVV
notes: also called MAS long; source: synthetic peptide (JPT Peptide Technologies)
As for B5, the Kd in [12] was found to be 123 µM; in test [13], 73 µM; in test [14], 3 µM.

B6: TTC24_05 (short peptide of Tetratricopeptide repeat protein 24: GSGAG and the last five residues) (peptide)
peptide: Biotin-GSGAGICTIV
notes: also called TTC24 short; source: synthetic peptide (JPT Peptide Technologies)
Turning to B6, the Kd is 65 µM in [11], 34 µM in test [12], 239 µM in test [13] and 25 µM in test [14].

B7: TAX1_10 (long peptide of the Trans-activating transcriptional regulatory protein of HTLV-1: the last ten residues) (peptide)
peptide: Biotin-SEKHFRETEV
notes: also called TAX1 long; HTLV1 Tax1; source: synthetic peptide (JPT Peptide Technologies)
On to B7, for which the dissociation constant (Kd) in test [6] came out at 53 µM; in [15], 1230 µM; in test [7], 29 µM; in test [16] it was 48 µM.

B8: TANC1_10 (long peptide of Tetratricopeptide repeat, ankyrin repeat and coiled-coil domain-containing protein 1: the last ten residues) (peptide)
peptide: Biotin-PKRSFIESNV
notes: also called TANC1 long; source: synthetic peptide (JPT Peptide Technologies)
Turning to B8, the values for the Kd in test [6], in test [7] and in test [8] were 287 µM, 39 µM and 2 µM, respectively.

In general, Kd refers to the equilibrium constant for the complex coming apart.
